Test results reported in US6495314 (Scripps Research, dated 2002).
Changes are numbered by the printed parent chain. In names and notes the source's numbering stands. No end group written: not given here.

B1: Ac-CWAcp-PPPALPPKKR.amide, C3G-derived peptide designed for attachment to an affinity column (peptide)
peptide: CWPPPALPPKKR
modifications: N-terminal acetyl; ε-aminocaproic acid (Acp, B) at position 3; C-terminal amide; on the column the Cys side chain is coupled to iodoacetyl agarose (Sulfolink)
notes: also called Acetyl-CWAcp-C3G; Ac-CWBPPPALPPKKR.amide
B2: c-Crk N-terminal SH3 domain (134-191) analogue, dipeptide DI (157-158) replaced by Gly-[COS]-Gly (other)
chain: AEYVRALFDFNGNDEEDLPFKKGGGLRIRDKPEEQWWNAEDSEGKRGMIPVPYVEKYR
modifications: not fully specified; Gly-[COS]-Gly unit (-NHCH2CO-SCH2CO-) in place of D157-I158; backbone thioester (S in place of the NH of residue 158)
notes: Member of the nine-member Gly-[COS]-Gly array over cCrk(156-165); Positions count on murine c-Crk; also called DI (Gly-[COS]-Gly array)
B3: c-Crk N-terminal SH3 domain (134-191) analogue, dipeptide DK (163-164) replaced by Gly-[COS]-Gly (other)
chain: B2 chain with G24D, G25I, D30G, K31G
modifications: not fully specified; Gly-[COS]-Gly unit (-NHCH2CO-SCH2CO-) in place of D163-K164; backbone thioester (S in place of the NH of residue 164)
notes: Member of the nine-member Gly-[COS]-Gly array over cCrk(156-165); Positions count on murine c-Crk; also called DK (Gly-[COS]-Gly array)
B4: c-Crk N-terminal SH3 domain (134-191) analogue, dipeptide GD (156-157) replaced by Gly-[COS]-Gly (other)
chain: B2 chain with G25I
modifications: not fully specified; Gly-[COS]-Gly unit (-NHCH2CO-SCH2CO-) in place of G156-D157; backbone thioester (S in place of the NH of residue 157)
notes: Member of the nine-member Gly-[COS]-Gly array over cCrk(156-165); G156 stays Gly; Positions count on murine c-Crk; also called GD (Gly-[COS]-Gly array)
B5: c-Crk N-terminal SH3 domain (134-191) analogue, dipeptide IL (158-159) replaced by Gly-[COS]-Gly (other)
chain: B2 chain with G24D, L26G
modifications: not fully specified; Gly-[COS]-Gly unit (-NHCH2CO-SCH2CO-) in place of I158-L159; backbone thioester (S in place of the NH of residue 159)
notes: Member of the nine-member Gly-[COS]-Gly array over cCrk(156-165); Positions count on murine c-Crk; also called IL (Gly-[COS]-Gly array)
B6: c-Crk N-terminal SH3 domain (134-191) analogue, dipeptide IR (161-162) replaced by Gly-[COS]-Gly (other)
chain: B2 chain with G24D, G25I, I28G, R29G
modifications: not fully specified; Gly-[COS]-Gly unit (-NHCH2CO-SCH2CO-) in place of I161-R162; backbone thioester (S in place of the NH of residue 162)
notes: Member of the nine-member Gly-[COS]-Gly array over cCrk(156-165); Positions count on murine c-Crk; also called IR (Gly-[COS]-Gly array)
B7: c-Crk N-terminal SH3 domain (134-191) analogue, dipeptide KP (164-165) replaced by Gly-[COS]-Gly (other)
chain: B2 chain with G24D, G25I, K31G, P32G
modifications: not fully specified; Gly-[COS]-Gly unit (-NHCH2CO-SCH2CO-) in place of K164-P165; backbone thioester (S in place of the NH of residue 165)
notes: Member of the nine-member Gly-[COS]-Gly array over cCrk(156-165); Positions count on murine c-Crk; also called KP (Gly-[COS]-Gly array)
B8: c-Crk N-terminal SH3 domain (134-191) analogue, dipeptide LR (159-160) replaced by Gly-[COS]-Gly (other)
chain: B2 chain with G24D, G25I, L26G, R27G
modifications: not fully specified; Gly-[COS]-Gly unit (-NHCH2CO-SCH2CO-) in place of L159-R160; backbone thioester (S in place of the NH of residue 160)
notes: Member of the nine-member Gly-[COS]-Gly array over cCrk(156-165); Positions count on murine c-Crk; also called LR (Gly-[COS]-Gly array)
B9: c-Crk N-terminal SH3 domain (134-191) analogue, dipeptide RD (162-163) replaced by Gly-[COS]-Gly (other)
chain: B2 chain with G24D, G25I, R29G, D30G
modifications: not fully specified; Gly-[COS]-Gly unit (-NHCH2CO-SCH2CO-) in place of R162-D163; backbone thioester (S in place of the NH of residue 163)
notes: Member of the nine-member Gly-[COS]-Gly array over cCrk(156-165); Positions count on murine c-Crk; also called RD (Gly-[COS]-Gly array)
B10: c-Crk N-terminal SH3 domain (134-191) analogue, dipeptide RI (160-161) replaced by Gly-[COS]-Gly (other)
chain: B2 chain with G24D, G25I, R27G, I28G
modifications: not fully specified; Gly-[COS]-Gly unit (-NHCH2CO-SCH2CO-) in place of R160-I161; backbone thioester (S in place of the NH of residue 161)
notes: Member of the nine-member Gly-[COS]-Gly array over cCrk(156-165); Positions count on murine c-Crk; also called RI (Gly-[COS]-Gly array)
B11: control peptide Ac-CAcpYGGFL.amide (YGGFL = leucine enkephalin) (peptide)
peptide: Ac-CYGGFL-NH2
modifications: not fully specified (residue 1); also: Cys side chain coupled to Sulfolink agarose
notes: also called Ac-CBYGGFL.amide; Leucine-Enkephalin agarose column
B12: c-Crk N-terminal SH3 domain (134-191) analogue, L^151P^152 replaced by Gly-[COS]-βAla (other)
chain: B2 chain with L18G, P19X, G24D, G25I
modifications: not fully specified; Gly-[COS]-βAla unit (-NH-CH2-CO-S-CH2-CH2-CO-) in place of L151-P152; backbone thioester
notes: Positions count on murine c-Crk; X = -S-CH2CH2-CO- unit; Tested crude in a pooled array; also called LP
B13: c-Crk N-terminal SH3 domain (134-191) analogue, I^161R^162 replaced by Gly-[COS]-βAla (other)
chain: B2 chain with G24D, G25I, I28G, R29X
modifications: not fully specified; Gly-[COS]-βAla unit (-NH-CH2-CO-S-CH2-CH2-CO-) in place of I161-R162; backbone thioester
notes: Positions count on murine c-Crk; X = -S-CH2CH2-CO- unit; also called IR; Gly-SβAla analogue
B14: c-Crk N-terminal SH3 domain (134-191) analogue, R^162D^163 replaced by Gly-[COS]-βAla (other)
chain: B2 chain with G24D, G25I, R29G, D30X
modifications: not fully specified; Gly-[COS]-βAla unit (-NH-CH2-CO-S-CH2-CH2-CO-) in place of R162-D163; backbone thioester
notes: Positions count on murine c-Crk; X = -S-CH2CH2-CO- unit; also called RD; Gly-SβAla analogue

Tests used:
BSA = BSA (UniProt P02769 25-607); assay: C3G peptide affinity column, stepwise NaCl washes, A280 and mass spectrometry
Method: The column was washed with 4 mL each of 50 mM NaCl, 100 mM NaCl, 200 mM NaCl, 300 mM NaCl, 400 mM NaCl, 500 mM NaCl and 1000 mM NaCl, 0.1 M phosphate, pH 7.0 buffer. The column was then washed with 1 M NH_2OH 200 mM NH_4CO_3 pH 6.0 (4 mL) and finally eluted in 6M Gn.HCl 100 mM phosphate pH 6.5 (4 mL). Samples from all column fractions were monitored by absorbance at 280 nm and by HPLC.

[1] = target: T1, synthetic murine cCrk N-terminal SH3 domain (residues 134-191) (murine, UniProt Q64010 134-191); assay: tryptophan fluorescence titration in solution, 12 hours incubation
T1 construct: Made by total chemical synthesis and folded in HEPES/NaCl buffer; also called cCrk(134-191); c-Crk SH3
Method: (§1) The resulting synthetic protein domain was then assayed for its affinity for two different proline-rich peptides. […] This change in solvent exposure leads to an increase in the fluorescence intensity of the tryptophan sidechain which can be monitored as a function of increasing ligand concentration (Feng et al. *Science* 1994.266, 1241–1245).
(§2) 1994, 3, 1261–1266. The purified and lyophilized 58 residue polypeptide chain (0.2 mg) was folded by dissolving in 0.6 mL of 20 mM Hepes, 60 mM NaCl, pH 7.3 to produce a folded protein solution (~50 μM).

[2] = target: T1, synthetic murine cCrk N-terminal SH3 …; assay: in solution; method not stated in the legend
Method: as §1, §2
Target sequence in this assay (Q64010 134-191 limits assumed): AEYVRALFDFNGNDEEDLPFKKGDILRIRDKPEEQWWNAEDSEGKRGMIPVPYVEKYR

[3] = target: B1; assay: Gly-[COS]-Gly array on C3G peptide affinity column, MALDI MS readout (FIG. 27A)
[4] = target: T1, synthetic murine cCrk N-terminal SH3 …; assay: control peptide affinity column
[5] = target: B1; assay: 19-member array on C3G peptide affinity column, MALDI MS readout
[6] = target: B11; assay: nine-member array on control peptide column, A280
Method: The column was then washed with 0.5 M NaCl buffer to remove nonspecific binding proteins from the column. Specifically bound protein analogues were then eluted with 1 M hydroxylamine bufffer. Amounts of eluted peptide were monitored by UV absorbance at 280 nm. This procedure was used for both the C3G peptide column and for the control column loaded with Ac-C-AcpYGGFL.amide.
Affinity chromatography of the arrays of protein analogues was carried out as follows. […] After incubation at room temperature for a period of 6–8 hours the column was washed with 0.5 M NaCl in 0.1 M sodium phosphate, pH 7.0 buffer (6×1 mL) to remove any non-specifically bound proteins. The first two 1 mL fractions were collected and immediately mixed with an equal volume of 1 M NH_2OH, 20 mM NH_4HCO_3, pH 5.5 buffer to cleave any thioester-containing protein analogues. […] Samples of the eluted fractions were monitored by UV absorbance at 280 nm. This procedure was used for both the C3G peptide column and for the control column loaded with Ac-C-Acp-YGGFL.amide. To accommodate MALDI analysis, both the 0.5M NaCl wash and 1 M NH_2OH fractions were desalted on a low pressure, disposable C-18 column, washed with HPLC buffer A and peptide fragments eluted with 1.5 mL 60% acetonitrile in water, 0.1% TFA.

BSA, sequence (P02769 25-607 limits assumed): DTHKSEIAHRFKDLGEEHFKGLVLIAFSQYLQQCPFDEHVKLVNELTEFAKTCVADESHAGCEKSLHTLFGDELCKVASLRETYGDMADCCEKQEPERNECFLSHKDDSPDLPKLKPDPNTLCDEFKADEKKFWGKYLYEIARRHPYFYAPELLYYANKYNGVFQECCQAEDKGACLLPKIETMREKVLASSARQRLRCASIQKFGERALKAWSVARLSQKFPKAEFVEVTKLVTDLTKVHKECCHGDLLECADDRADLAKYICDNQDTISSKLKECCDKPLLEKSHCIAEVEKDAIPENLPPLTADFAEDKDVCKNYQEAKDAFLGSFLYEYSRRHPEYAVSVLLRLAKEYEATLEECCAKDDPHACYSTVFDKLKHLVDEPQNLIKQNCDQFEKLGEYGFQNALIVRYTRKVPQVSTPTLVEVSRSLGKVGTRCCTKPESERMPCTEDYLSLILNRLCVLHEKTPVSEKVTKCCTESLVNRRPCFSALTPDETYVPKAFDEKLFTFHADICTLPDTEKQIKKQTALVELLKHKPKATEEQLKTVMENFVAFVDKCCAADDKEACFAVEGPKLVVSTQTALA

Q: Which results are given for B1?
A: binding result (BSA): no binding; Kd [1]: 2400 nM

Q: What does the source list for PPPALPPKKR-NH2 (also called C3G peptide) [C3G-derived peptide PPPALPPKKR.amide]?
A: Kd [1]: 1800 nM; Kd [2]: 2300 nM

Q: Does B2 bind [3]?
A: binds

Q: Does B3 bind [3]?
A: binds

Q: Does B4 bind [3]?
A: binds

Q: Does B5 bind [3]?
A: binds

Q: Does B6 bind [3]?
A: binds

Q: Does B7 bind [3]?
A: binds

Q: Does B8 bind [3]?
A: binds

Q: Does B9 bind [3]?
A: binds

Q: Does B10 bind [3]?
A: binds

Q: Does B11 bind [4]?
A: no binding

Q: Does B12 bind [5]?
A: binds

Q: Does B13 bind [5]?
A: binds

Q: Does B13 bind [6]?
A: no binding

Q: Which results are given for B14?
A: binding result [5]: binds; binding result [6]: no binding
